This is an account of results in patent US20200165325A1.

Like-named read-outs stand apart in the source and are kept apart here.

In assay [1] the target is HIV-1 Env of strain 1054_07_TC4_1499 (HIV-1).
Assay [2] addresses HIV-1 Env of strain 6811.v7.c18 (HIV-1).
Assay [3] addresses HIV-1 Env of strain AC10.0.29 (HIV-1).
Assay [4] concerns the target HIV-1 Env of strain CAAN5342.A2 (HIV-1).
Assay [5] concerns the target HIV-1 Env of strain Q259.d2.17 (HIV-1).
The target in assay [6] is HIV-1 Env of strain REJO4541.67 (HIV-1).
For assay [7], the target named is HIV-1 Env of strain ZM109F.PB4 (HIV-1).
The target in assay [8] is Env (gp120) of HIV-1 strain AC10.0.29 (HIV-1).
Assay [9] deals with Env (gp120) of HIV-1 strain QH0692.42 (HIV-1).
In assay [10] the target is Env (gp120) of HIV-1 strain SC422661.8 (HIV-1).
Assay [11] has as its target Env (gp120) of HIV-1 strain T257-31 (HIV-1).
Assay [12] has as its target Env (gp120) of HIV-1 strain TRO.11 (HIV-1).
Assay [13] deals with Env (gp120) of HIV-1 strain ZM214M.PL15 (HIV-1).
Assay [14] has as its target Env (gp120) of HIV-1 strain Du156.12 (HIV-1).
Assay [15] concerns the target Env (gp120) of HIV-1 strain ZM109F.PB4 (HIV-1).
Assay [16] deals with Env (gp120) of HIV-1 strain ZM135M.PL10a (HIV-1).
Assay [17] concerns the target Env (gp120) of HIV-1 strain ZM197M.PB7 (HIV-1).
Assay [18] deals with Env (gp120) of HIV-1 strain ZM214M.PL15 (HIV-1). This is another data set of the same source.
Assay [19] has as its target Env (gp120) of HIV-1 strain ZM249M.PL1 (HIV-1).
Assay [20] addresses Env (gp120) of HIV-1 strain ZM53M.PB12 (HIV-1).
For assay [21], the target named is Env (gp120) of HIV-1 strain 3016.v5.c45 (HIV-1).
The target in assay [22] is Env (gp120) of HIV-1 strain C2101.c01 (HIV-1).
In assay [23] the target is HIV-1 Env of strain AC10.0.29 (HIV-1). This is another data set of the same source.
Assay [24] addresses HIV-1 Env of strain CAP45.2.00.G3 (HIV-1).
Assay [25] has as its target HIV-1 Env of strain QH0692.42 (HIV-1).
For assay [26], the target named is HIV-1 Env of strain SC422661.8 (HIV-1).
In assay [27] the target is HIV-1 Env of strain T257-31 (HIV-1).
In assay [28] the target is HIV-1 Env of strain TRO.11 (HIV-1).
The target in assay [29] is HIV-1 Env of strain ZM214M.PL15.11 (HIV-1).
For assay [30], the target named is Env (gp120) of HIV-1 strain Du172.17 (HIV-1).
Assay [31] addresses Env (gp120) of HIV-1 strain CAP210.2.00.E8 (HIV-1).
Assay [32] has as its target Env (gp120) of HIV-1 strain CAP45.2.00.G3 (HIV-1).
The target of assay [33] is Env (gp120) of HIV-1 strain 3718.v3.c11 (HIV-1).
Assay [34] has as its target Env (gp120) of HIV-1 strain T255-34 (HIV-1).
Assay [35] concerns the target gp160 of HIV-1 strain YU2 with a substitution of 458gp120 (HIV-1).

For NIH45-46 G54F IgG (antibody), the In vitro neutralization IC80 was 0.283 µg/mL in [1]; 0.063 µg/mL in assay [2]; 1.12 µg/mL in assay [3]; 0.28 µg/mL in assay [4]; 0.036 µg/mL in [5]; 0.028 µg/mL in assay [6]. In assay [7], this substance gave an In vitro neutralization IC80 of 0.17 µg/mL.

Regarding NIH45-46 G54W IgG (antibody), the In vitro neutralization IC80 in assay [1] came to 0.165 µg/mL; in [2] it was 0.033 µg/mL; in [3], 0.63 µg/mL; in [4] it was 0.21 µg/mL; in assay [5], 0.014 µg/mL; in assay [6], 0.013 µg/mL. The same substance came in with an In vitro neutralization IC80 in assay [7] of 0.07 µg/mL.

NIH45-46 G54Y IgG (antibody): the In vitro neutralization IC80 in [1] came to 0.236 µg/mL; in assay [2] it was 0.059 µg/mL; in assay [3], 0.9 µg/mL; in assay [4] it was 0.27 µg/mL; in assay [5], 0.034 µg/mL; in assay [6], 0.02 µg/mL. Besides, the In vitro neutralization IC80 in assay [7] was 0.168 µg/mL.

Consider NIH45-46 IgG (antibody), for which the neutralization IC50 was found to be 0.9 µg/mL in [8]; 0.7 µg/mL in assay [9]; 0.05 µg/mL in [10]; 0.5 µg/mL in assay [11]; 1.9 µg/mL in assay [12]; 0.3 µg/mL in assay [13]. In addition, the neutralization IC50 in [14] was found to be 0.01 µg/mL; in [15], 0.22 µg/mL; in assay [16] it was 0.36 µg/mL; in [17], 0.14 µg/mL; in assay [18], 0.05 µg/mL; in [19], 0.02 µg/mL. Further, the neutralization IC50 in [20] is 0.65 µg/mL; in [21] it was > 30 µg/mL; in [22], 12.8 µg/mL.

As for NIH45-46 IgG (wild type) (antibody), the In vitro neutralization IC80 in assay [1] worked out at 0.404 µg/mL; in assay [2], 0.113 µg/mL; in [3], 1.93 µg/mL; in [4], 0.4 µg/mL; in assay [5], 0.154 µg/mL; in assay [6], 0.035 µg/mL. Besides, in [7], the In vitro neutralization IC80 was determined as 0.437 µg/mL. The In vitro neutralization IC50 in assay [23] was 0.9 µg/mL; in assay [24] it was > 50 µg/mL; in [25], 0.7 µg/mL; in assay [26] it was 0.05 µg/mL; in assay [27], 0.5 µg/mL; in [28] it was 1.9 µg/mL. The In vitro neutralization IC50 in assay [29] is 0.5 µg/mL.

NIH45-46^G54F IgG (antibody): in assay [30], the neutralization IC50 came to 16 µg/mL.

On to NIH45-46^G54W IgG (antibody), for which the neutralization IC50 in assay [30] is 0.9 µg/mL; in [31], > 50 µg/mL; in [32], 32.2 µg/mL. Besides, the values for the improvement of neutralization potency over NIH45-46 in [33] and in [34] were 2000 fold and > 700 fold, respectively. Moreover, the neutralization of pseudovirus carrying mutant gp160 in [35] was > 1500 fold.

With NIH45-46^G54Y IgG (antibody), in assay [32], the neutralization IC50 is > 50 µg/mL.
